Measurements from patent US20170334950.
Numbering of substitutions follows the chain as printed. Numbers in names are those of the source.

B1: recombinant FLT3-D835Y mutant kinase (protein)
chain: HKYKKQFRYESQLQMVQVTGSSDNEYFYVDFREYEYDLKWEFPRENLEFGKVLGSGAFGKVMNATAYGISKTGVSIQVAVKMLKEKADSSEREALMSELKMMTQLGSHENIVNLLGACTLSGPIYLIFEYCCYGDLLNYLRSKREKFHRTWTEIFKEHNFSFYPTFQSHPNSSMPGSREVQIHPDSDQISGLHGNSFHSEDEIEYENQKRLEEEEDLNVLTFEDLLCFAYQVAKGMEFLEFKSCVHRDLAARNVLVTHGKVVKICDFGLARYIMSDSNYVVRGNARLPVKWMAPESLFEGIYTIKSDVWSYGILLWEIFSLGVNPYPGIPVDANFYKLIQNGFKMDQPFYATEEIYIIMQSCWAFDSRKRPSFPNLTSFLGCQLADAEEAMYQNVDGRVSECPHTYQNRRPFSREMDLGLLSPQAQVEDS
B2: recombinant wild type FLT3 kinase (FLT3-WT) (protein)
chain: B1 chain with Y272D

Key:
[1] = molecular target: FLT3 Artificial Substrate (FAS) candidate sequence A
[2] = molecular target: FLT3 Artificial Substrate (FAS) candidate sequence H
[3] = molecular target: FLT3 Artificial Substrate (FAS) candidate sequence C
[4] = molecular target: FLT3 Artificial Substrate (FAS) candidate sequence E
[5] = molecular target: FLT3 Artificial Substrate (FAS) candidate sequence B
[6] = molecular target: FLT3 Artificial Substrate (FAS) candidate sequence F
[7] = molecular target: FLT3 Artificial Substrate (FAS) candidate sequence G
[8] = molecular target: FLT3 Artificial Substrate (FAS) candidate sequence D

Protein | phosphorylation, in vitro kinase assay [1] | phosphorylation, in vitro kinase assay [2] | phosphorylation, in vitro kinase assay [3] | phosphorylation, in vitro kinase assay [4] | phosphorylation, in vitro kinase assay [5] | phosphorylation, in vitro kinase assay [6] | phosphorylation, in vitro kinase assay [7] | phosphorylation, in vitro kinase assay, 60-minute incubation [1] | phosphorylation, in vitro kinase assay [8]
B1 | Candidate sequences A, B, C displayed higher levels of phosphorylation by FLT3-D835Y compared to FL-Abltide | sequence H showed no phosphorylation | Candidate sequences A, B, C displayed higher levels of phosphorylation by FLT3-D835Y compared to FL-Abltide | Sequences E, F and G were also phosphorylated by FLT3-D835Y but at lower levels than FL-Abltide | Candidate sequences A, B, C displayed higher levels of phosphorylation by FLT3-D835Y compared to FL-Abltide | Sequences E, F and G were also phosphorylated by FLT3-D835Y but at lower levels than FL-Abltide | Sequences E, F and G were also phosphorylated by FLT3-D835Y but at lower levels than FL-Abltide | – | –
B2 | – | The remaining sequences did not get phosphorylated by FLT3-WT | – | The remaining sequences did not get phosphorylated by FLT3-WT | The remaining sequences did not get phosphorylated by FLT3-WT | The remaining sequences did not get phosphorylated by FLT3-WT | The remaining sequences did not get phosphorylated by FLT3-WT | Sequence A showed a similar level of phosphorylation compared to Abltide over a 60-minute incubation | The remaining sequences did not get phosphorylated by FLT3-WT
